In paper PMC2958806:

Columns and labels:
[1] = target: DENV2 E DI/II protein (E domains I and II, E residues 1-291) (dengue virus 2 (New Guinea C strain))
[2] = target: DENV2 E DI/II H244A (dengue virus 2 (New Guinea C strain))

Substance | liposome co-floatation of DI/II at low pH in the presence of DIII (no co-floatation when BSA was substituted for DIII) [1] [%] | liposome co-floatation of H244A DI/II at pH 5.75 with DIII, efficiency of floatation in the presence of pr (43% in the absence of pr) [2] [%]
DENV2 NGC DIII (LDIIIH1CS, E residues 289-430) (domain or fragment) | 25 | –
DENV2 pr peptide (recombinant, prM residues 1-86 with tandem Strep tag) (domain or fragment) | – | 47
